Assay results as given in article PMC3816256, “Sgol2 provides a regulatory platform that coordinates essential cell cycle processes during meiosis I in oocytes” (eLife, 2013).
Substitutions are numbered along the chain they refer to. Names and notes keep the numbering of the source.

B1: MBP-Sgol2cc-Flag, wild type (mouse Sgol2 coiled coil region 31-117) (domain or fragment, UniProt Q7TSY8 31-117, looked up)
chain: SLASKIKAKILNNSSIFKISLKHNNRALARALSKEKENSRRITTEKMQLQKEVEKLNFENTFLRLKLNTLNKKLVEIESHVSNDLLT
notes: In the dimerization assays the second copy (bait) carried a His tag in place of Flag (MBP-Sgol2cc-His, pET28b backbone; Flag copy in pMAL-c2x); also called MBP-mSgol2cc-Flag; MBP-Sgol2cc-His; source: also His- and Flag-tagged copies co-expressed, in extract; not shown: MBP, N-terminal, kept; Flag, C-terminal, kept
B2: MBP-Sgol2cc-Flag E82A (domain or fragment, mouse, UniProt Q7TSY8 31-117, looked up)
chain: B1 chain with E52A
notes: In the dimerization assay the second copy (bait) carried a His tag in place of Flag and the same substitution; not shown: MBP, N-terminal, kept; Flag, C-terminal, kept
B3: MBP-Sgol2cc-Flag L51A (domain or fragment, mouse, UniProt Q7TSY8 31-117, looked up)
chain: B1 chain with L21A
notes: as for B2
B4: MBP-Sgol2cc-Flag N54A (domain or fragment, mouse, UniProt Q7TSY8 31-117, looked up)
chain: B1 chain with N24A
notes: as for B2
B5: MBP-Sgol2cc-Flag N55I (domain or fragment, mouse, UniProt Q7TSY8 31-117, looked up)
chain: B1 chain with N25I
notes: as for B2
B6: MBP-Sgol2cc-Flag E82K (domain or fragment, mouse, UniProt Q7TSY8 31-117, looked up)
chain: B1 chain with E52K
notes: as for B2
B7: MBP-Sgol2cc-Flag R56A (domain or fragment, mouse, UniProt Q7TSY8 31-117, looked up)
chain: B1 chain with R26A
notes: as for B2
B8: MBP-Sgol2cc-Flag L51A/N54A/R56A (3A) (domain or fragment, mouse, UniProt Q7TSY8 31-117, looked up)
chain: B1 chain with L21A, N24A, R26A
notes: In the dimerization assays the second copy (bait) carried a His tag in place of Flag and the same substitutions; also called 3A triple mutation; 3A mutant; source: also His- and Flag-tagged copies co-expressed, in extract; not shown: MBP, N-terminal, kept; Flag, C-terminal, kept

Biological target: the molecule itself
Assay: pull-down; purified Flag-tagged MBP-Sgol2cc (31-117) pulled down by purified His-tagged MBP-Sgol2cc (31-117) with the same substitution; western blots

Binding result, binds:
B1
B2
B3
B4
B5
B6
B7

Biological target: the molecule itself
Assay: pull-down; MBP-Sgol2cc-His and MBP-Sgol2cc-Flag co-expressed in E. coli; 10 mg of extract on Talon beads 2 hr at 4°C (50 mM sodium phosphate pH 7, 250 mM NaCl, 10% glycerol, 0.02% Triton X-100), washes with 23 mM imidazole; blots with anti-Flag and anti-His; the paper calls it co-immunoprecipitation

Binding result, binds:
B8
